Data reported in the Immune Epitope Database (IEDB).

Assays:
HLA-A*02:01 [1] = assay: IEDB peptide-MHC binding, purified MHC/direct/fluorescence; filed as Kd, often an IC50 or EC50 that approximates it; ≥ and ≤ were set here for values at or beyond the usual limits of such assays; conditions: source organism: Orthohantavirus dobravaense
HLA-A*02:11 = assay: as above; conditions: source organism: Kurkino virus
HLA-A*02:12 = assay: as above; conditions: source organism: Kurkino virus
HLA-A*02:19 = assay: as above; conditions: source organism: Kurkino virus
HLA-A*69:01 = assay: as above
HLA-A*03:19 = assay: IEDB peptide-MHC binding, purified MHC/competitive/fluorescence; filed as Kd, often an IC50 or EC50 that approximates it; ≥ and ≤ were set here for values at or beyond the usual limits of such assays; conditions: source organism: Kurkino virus
HLA-A*32:07 = assay: as above; conditions: source organism: Kurkino virus
HLA-A*32:15 = assay: as above; conditions: source organism: Kurkino virus
HLA-B*15:42 = assay: as above; conditions: source organism: Kurkino virus
HLA-B*27:20 = assay: as above; conditions: source organism: Kurkino virus
HLA-B*40:13 = assay: as above; conditions: source organism: Kurkino virus
HLA-B*45:06 = assay: as above; conditions: source organism: Kurkino virus
HLA-B*83:01 = assay: as above; conditions: source organism: Kurkino virus
HLA-A*01:01 = assay: IEDB peptide-MHC binding, purified MHC/direct/fluorescence; filed as Kd, often an IC50 or EC50 that approximates it; ≥ and ≤ were set here for values at or beyond the usual limits of such assays; conditions: source organism: Camelpox virus CMS
HLA-A*26:01 = assay: as above; conditions: source organism: Variola virus
HLA-A*31:01 = assay: as above; conditions: source organism: Camelpox virus CMS
HLA-B*07:02 = assay: as above; conditions: source organism: Camelpox virus CMS
HLA-B*15:01 = assay: as above; conditions: source organism: Camelpox virus CMS
HLA-B*27:05 = assay: as above; conditions: source organism: Camelpox virus CMS
HLA-B*46:01 = assay: as above; conditions: source organism: Camelpox virus CMS
HLA-B*48:01 = assay: as above; conditions: source organism: Camelpox virus CMS
HLA-B*57:01 = assay: as above; conditions: source organism: Camelpox virus CMS
HLA-B*58:01 = assay: as above; conditions: source organism: Camelpox virus CMS
HLA-A*02:01 [2] = assay: IEDB peptide-MHC binding, purified MHC/competitive/fluorescence; filed as Kd, often an IC50 or EC50 that approximates it; ≥ and ≤ were set here for values at or beyond the usual limits of such assays; conditions: source organism: Vaccinia virus Tian Tan
HLA-A*11:01 = assay: as above; conditions: source organism: Vaccinia virus Tian Tan
HLA-A*26:02 = assay: as above; conditions: source organism: Vaccinia virus Tian Tan
HLA-A*68:02 = assay: as above; conditions: source organism: Vaccinia virus Tian Tan
HLA-B*15:09 = assay: as above; conditions: source organism: Vaccinia virus Tian Tan
HLA-B*15:17 = assay: as above; conditions: source organism: Vaccinia virus Tian Tan
HLA-B*35:01 = assay: as above; conditions: source organism: Vaccinia virus Tian Tan
HLA-B*39:01 = assay: as above; conditions: source organism: Vaccinia virus Tian Tan
HLA-A*32:01 = assay: IEDB peptide-MHC binding, purified MHC/competitive/radioactivity; filed as Kd, often an IC50 or EC50 that approximates it; ≥ and ≤ were set here for values at or beyond the usual limits of such assays; conditions: source organism: Vaccinia virus WR
HLA-B*15:03 = assay: as above; conditions: source organism: Vaccinia virus WR

## SLYSGFPSL
HLA-A*02:01 [1]
  Kd: ≤ 0.001 µM
HLA-A*02:11
  Kd: ≤ 0.001 µM
HLA-A*02:12
  Kd: ≤ 0.001 µM
HLA-A*02:19
  Kd: 0.042 µM
HLA-A*69:01; source organism: Orthohantavirus dobravaense
  Kd: ≤ 0.001 µM
HLA-A*03:19
  Kd: 0.0261 µM
HLA-A*32:07
  Kd: 0.0025 µM
HLA-A*32:15
  Kd: 0.0305 µM
HLA-B*15:42
  Kd: ≥ 5 µM
HLA-B*27:20
  Kd: 0.0265 µM
HLA-B*40:13
  Kd: 0.16 µM
HLA-B*45:06
  Kd: ≥ 5 µM
HLA-B*83:01
  Kd: ≥ 5 µM

## WQFAIHYSF
HLA-A*01:01
  Kd: ≥ 20 µM
HLA-A*26:01
  Kd: ≥ 20 µM
HLA-A*31:01
  Kd: ≥ 20 µM
HLA-A*69:01; source organism: Camelpox virus CMS
  Kd: ≥ 20 µM
HLA-B*07:02
  Kd: ≥ 20 µM
HLA-B*15:01
  Kd: 0.13 µM
HLA-B*27:05
  Kd: 0.277 µM
HLA-B*46:01
  Kd: ≥ 20 µM
HLA-B*48:01
  Kd: 0.16 µM
HLA-B*57:01
  Kd: ≥ 20 µM
HLA-B*58:01
  Kd: ≥ 20 µM
HLA-A*02:01 [2]
  Kd: ≥ 20 µM
HLA-A*11:01
  Kd: ≥ 20 µM
HLA-A*26:02
  Kd: 0.833 µM
HLA-A*68:02
  Kd: ≥ 20 µM
HLA-B*15:09
  Kd: ≥ 20 µM
HLA-B*15:17
  Kd: 4.67 µM
HLA-B*35:01
  Kd: 0.922 µM
HLA-B*39:01
  Kd: 0.604 µM
HLA-A*32:01
  Kd: 0.00275 µM
HLA-B*15:03
  Kd: 0.00447 µM
